Consider one molecule from PMC11736007.

The assay concerns the target Orai1β-eGFP (UniProt Q96D31). In words: co-IP; Orai1-KO MCF7 cells co-transfected with an Orai1 variant and mCherry-SPCA2; lysis in 1% IGEPAL CA-630 buffer pH 8; immunoprecipitation with anti-Orai1 antibody and protein A-agarose at 4 °C overnight; Western blot with anti-mCherry; signal normalised to input and to immunoprecipitated Orai1. A general note: In western blotting, separated proteins are transferred to a membrane and probed.
UniProt Q96D31, sequence (Q96D31 64-301): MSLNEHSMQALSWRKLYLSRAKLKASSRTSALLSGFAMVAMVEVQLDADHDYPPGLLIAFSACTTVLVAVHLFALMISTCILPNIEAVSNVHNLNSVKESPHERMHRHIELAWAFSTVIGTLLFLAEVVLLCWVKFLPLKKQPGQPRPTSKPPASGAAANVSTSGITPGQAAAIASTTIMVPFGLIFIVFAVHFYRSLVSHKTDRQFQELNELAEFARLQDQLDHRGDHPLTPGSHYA

B1: mCherry-SPCA2 (natural protein)
chain: MVEGRVSEFLKKLGFSGGGRQYQALEKDEEEALIDEQSELKAIEKEKKVTALPPKEACKCQKEDLARAFCVDLHTGLSEFSVTQRRLAHGWNEFVADNSEPVWKKYLDQFKNPLILLLLGSALVSVLTKEYEDAVSIATAVLVVVTVAFIQEYRSEKSLEELTKLVPPECNCLREGKLQHLLARELVPGDVVSLSIGDRIPADIRLTEVTDLLVDESSFTGEAEPCSKTDSPLTGGGDLTTLSNIVFMGTLVQYGRGQGVVIGTGESSQFGEVFKMMQAEETPKTPLQKSMDRLGKQLTLFSFGIIGLIMLIGWSQGKQLLSMFTIGVSLAVAAIPEGLPIVVMVTLVLGVLRMAKKRVIVKKLPIVETLGCCSVLCSDKTGTLTANEMTVTQLVTSDGLRAEVSGVGYDGQGTVCLLPSKEVIKEFSNVSVGKLVEAGCVANNAVIRKNAVMGQPTEGALMALAMKMDLSDIKNSYIRKKEIPFSSEQKWMAVKCSLKTEDQEDIYFMKGALEEVIRYCTMYNNGGIPLPLTPQQRSFCLQEEKRMGSLGLRVLALASGPELGRLTFLGLVGIIDPPRVGVKEAVQVLSESGVSVKMITGDALETALAIGRNIGLCNGKLQAMSGEEVDSVEKGELADRVGKVSVFFRTSPKHKLKIIKALQESGAIVAMTGDGVNDAVALKSADIGIAMGQTGTDVSKEAANMILVDDDFSAIMNAVEEGKGIFYNIKNFVRFQLSTSISALSLITLSTVFNLPSPLNAMQILWINIIMDGPPAQSLGVEPVDKDAFRQPPRSVRDTILSRALILKILMSAAIIISGTLFIFWKEMPEDRASTPRTTTMTFTCFVFFDLFNALTCRSQTKLIFEIGFLRNHMFLYSVLGSILGQLAVIYIPPLQRVFQTENLGALDLLFLTGLASSVFILSELLKLCEKYCCSPKRVQMHPEDV
B1: the percent decrease of co-precipitated SPCA2 against Orai1α came to 63%.
